From patent publication US20020058247A1 (TRIPEP, published 2002) come the findings set out here.

B1: LAVSLGQRATISCRASQSVS (SEQ. ID. No. 16) (peptide)
peptide: LAVSLGQRATISCRASQSVS
B2: VKPGASVKLSCKASGYIFTS (SEQ. ID. No. 5) (peptide)
peptide: VKPGASVKLSCKASGYIFTS
notes: also called Peptide # 2; Pept. #2
B3: CKASGYSFTGYNMNWVKQSH (SEQ. ID. No. 29) (peptide)
peptide: CKASGYSFTGYNMNWVKQSH
notes: also called Peptide # 26
B4: VKPGASVKISCKASGYSFTG (SEQ. ID. No. 28) (peptide)
peptide: VKPGASVKISCKASGYSFTG
notes: also called Peptide # 25
B5: ISCRASQSVSTSSYSYMHWY (SEQ. ID. No. 17) (peptide)
peptide: ISCRASQSVSTSSYSYMHWY

The target in the first experiment is T1, Full length recombinant HBcAg (rHBcAg) encompassing residues 1-183 (hepatitis B virus, UniProt P03146 1-183).
T1 construct: range 1-183; also called hepatitis B virus core antigen
T1 sequence (P03146 whole entry, the tested form may be a part): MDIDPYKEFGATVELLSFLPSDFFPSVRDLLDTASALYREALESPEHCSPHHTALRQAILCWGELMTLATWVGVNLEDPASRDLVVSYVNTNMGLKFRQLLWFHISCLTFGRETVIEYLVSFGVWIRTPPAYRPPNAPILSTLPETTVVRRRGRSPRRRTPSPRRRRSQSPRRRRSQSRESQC
In words: EIA, support-bound peptide, HBcAg 2.5 ug/ml.
Regarding B1, the OD came out at 0.195 OD.

With B2, the OD came to 0.374 OD.

In the case of B3, the OD amounted to 0.101 OD.

For the molecule B4, the OD came out at 0.159 OD.

Take B5: the OD amounted to 0.252 OD.

For another experiment, the target named is T1, Full length recombinant HBcAg (rHBcAg) …. In words: EIA, support-bound peptide, HBcAg 1.25 ug/ml.
B1: the OD worked out at 0.079 OD.

As for B2, the OD stood at 0.155 OD.

Take B3: the OD is 0.038 OD.

In the case of B4, the OD was 0.058 OD.

Regarding B5, the OD was 0.117 OD.

For a further experiment the target is unchanged. In words: competition EIA, HBcAg coated 5 ug/ml, peptide 12.5 ug/ml together with mAb 4-2 (competitor); OD of bound mAb.
On to B1, for which the “OD at 490 nm” value came out at 1.04 OD.

As to B2, the “OD at 490 nm” value amounted to 0.824 OD.

For B3, the “OD at 490 nm” value was 1.27 OD.

With B4, the “OD at 490 nm” value was 1.21 OD.

Turning to B5, the “OD at 490 nm” value was 1.44 OD.

Another experiment shares this target. In words: EIA, peptide coated 100 ug/ml, HBcAg 10 ug/ml.
As to B1, the OD stood at 0.9 OD.

Take B2: the OD turned out to be 1.45 OD.

B3: the OD stood at 0.422 OD.

Consider B4, for which the OD worked out at 1.01 OD.

In the case of B5, the OD was determined as 0.641 OD.

Another experiment shares this target. In words: EIA, support-bound peptide, HBcAg 0.2 ug/well.
Regarding B1, the “OD at 405 nm” value amounted to 0.807 OD.

Regarding B2, the “OD at 405 nm” value came out at 1.15 OD.

As for B3, the “OD at 405 nm” value is 0.356 OD.

Turning to B4, the “OD at 405 nm” value was found to be 0.845 OD.

As to B5, the “OD at 405 nm” value was 0.449 OD.

Another experiment has the same target. In words: EIA, peptide coated 50 ug/ml, HBcAg 10 ug/ml.
On to B1, for which the OD came out at 0.434 OD.

With B2, the OD came to 1.22 OD.

B3: the OD is 0.198 OD.

B4: the OD was determined as 0.766 OD.

In the case of B5, the OD was 0.569 OD.

The target of the next experiment is T2, truncated recombinant form of HBeAg containing nine residues of pre-core and the 150 first residues of HBcAg (hepatitis B virus, UniProt P03146 1-150).
T2 construct: domain: nine residues of pre-core;range 1-150; also called hepatitis B virus e antigen
T2 sequence (P03146 1-150): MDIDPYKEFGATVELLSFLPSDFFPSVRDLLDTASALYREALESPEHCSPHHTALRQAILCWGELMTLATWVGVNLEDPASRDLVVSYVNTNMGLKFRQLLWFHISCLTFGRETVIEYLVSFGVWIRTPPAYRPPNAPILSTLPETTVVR
In words: EIA, support-bound peptide, HBeAg 5 ug/ml.
Take B1: the OD was 0.038 OD.

B2: the OD came out at 0.096 OD.

Regarding B3, the OD worked out at 0.091 OD.

B4: the OD amounted to 0.05 OD.

Turning to B5, the OD worked out at 0.132 OD.

The next experiment concerns the target T2, truncated recombinant form of HBeAg …. In words: EIA, support-bound peptide, HBeAg 0.67 ug/ml.
For B1, the OD came to 0.024 OD.

As to B2, the OD was found to be 0.081 OD.

In the case of B3, the OD was determined as 0.027 OD.

Consider B4, for which the OD was 0.022 OD.

B5: the OD worked out at 0.046 OD.

The next experiment addresses T1, Full length recombinant HBcAg (rHBcAg) …. In words: EIA, peptide coated 6.25 ug/ml, HBcAg 10 ug/ml.
On to B1, for which the OD came to 0.388 OD.

As for B2, the OD worked out at 0.597 OD.

As for B3, the OD was found to be 0.156 OD.

As for B4, the OD was found to be 0.298 OD.

Consider B5, for which the OD is 0.63 OD.

For a further experiment the target is unchanged. In words: EIA, support-bound peptide, HBcAg 0.67 ug/ml.
Turning to B1, the OD was 0.028 OD.

Consider B2, for which the OD was found to be 0.034 OD.

As for B3, the OD was 0.028 OD.

Consider B4, for which the OD turned out to be 0.036 OD.

As to B5, the OD turned out to be 0.039 OD.

The target is the same in another experiment. In words: EIA, peptide coated 25 ug/ml, HBcAg 10 ug/ml.
B1: the OD turned out to be 0.276 OD.

Turning to B2, the OD came out at 1.04 OD.

Regarding B3, the OD is 0.181 OD.

For the molecule B4, the OD worked out at 0.569 OD.

As to B5, the OD came out at 0.636 OD.

The next experiment shares this target. In words: competition EIA, HBcAg coated 1 ug/ml, peptide 6.25 ug/ml before mAb 4-2 (competitor); OD of bound mAb.
With B1, the “OD at 490 nm” value was determined as 0.35 OD.

Take B2: the “OD at 490 nm” value came to 0.336 OD.

For B3, the “OD at 490 nm” value was found to be 0.351 OD.

As for B4, the “OD at 490 nm” value was determined as 0.329 OD.

For B5, the “OD at 490 nm” value was found to be 0.37 OD.

A further experiment shares this target. In words: competition EIA, HBcAg coated 1 ug/ml, peptide 100 ug/ml before mAb 4-2 (competitor); OD of bound mAb.
Turning to B1, the “OD at 490 nm” value worked out at 0.345 OD.

On to B2, for which the “OD at 490 nm” value came out at 0.083 OD.

Regarding B3, the “OD at 490 nm” value is 0.28 OD.

For the molecule B4, the “OD at 490 nm” value is 0.274 OD.

B5: the “OD at 490 nm” value was found to be 0.37 OD.

For another experiment the target is unchanged. In words: competition EIA, HBcAg coated 1 ug/ml, peptide 25 ug/ml before mAb 4-2 (competitor); OD of bound mAb.
Take B1: the “OD at 490 nm” value was 0.429 OD.

Consider B2, for which the “OD at 490 nm” value came to 0.341 OD.

As to B3, the “OD at 490 nm” value was 0.383 OD.

Regarding B4, the “OD at 490 nm” value was 0.359 OD.

For the molecule B5, the “OD at 490 nm” value was 0.439 OD.

A further experiment has as its target T3, non-structural 3 protein (NS3) of the hepatitis C virus (HCV) (hepatitis C virus).
T3 construct: Control antigen; also called HCV NS3
In words: EIA, support-bound peptide, HCV NS3 control.
With B1, the “OD at 405 nm” value stood at 0.128 OD.

Consider B2, for which the “OD at 405 nm” value stood at 0.269 OD.

For the molecule B3, the “OD at 405 nm” value was found to be 0.053 OD.

On to B4, for which the “OD at 405 nm” value stood at 0.097 OD.

Take B5: the “OD at 405 nm” value came out at 0.156 OD.

The target of the next experiment is T1, Full length recombinant HBcAg (rHBcAg) …. In words: EIA, peptide coated 12.5 ug/ml, HBcAg 10 ug/ml.
B1: the OD was determined as 0.24 OD.

With B2, the OD was determined as 0.913 OD.

With B3, the OD was found to be 0.179 OD.

On to B4, for which the OD was determined as 0.423 OD.

Turning to B5, the OD is 0.514 OD.

For another experiment, the target named is T2, truncated recombinant form of HBeAg …. In words: EIA, support-bound peptide, HBeAg 20 ug/ml.
For B1, the OD worked out at 0.393 OD.

In the case of B2, the OD was found to be 0.751 OD.

As for B3, the OD was found to be 0.241 OD.

As for B4, the OD worked out at 0.319 OD.

Consider B5, for which the OD amounted to 0.687 OD.

Another experiment shares this target. In words: EIA, support-bound peptide, HBeAg 2.5 ug/ml.
On to B1, for which the OD amounted to 0.03 OD.

Take B2: the OD is 0.063 OD.

Turning to B3, the OD came to 0.063 OD.

Take B4: the OD turned out to be 0.115 OD.

For B5, the OD was found to be 0.102 OD.

For a further experiment, the target named is T1, Full length recombinant HBcAg (rHBcAg) …. In words: EIA, support-bound peptide, HBcAg 2 ug/well.
For the molecule B1, the “OD at 405 nm” value was 3.11 OD.

As for B2, the “OD at 405 nm” value is 3.69 OD.

With B3, the “OD at 405 nm” value was 2.29 OD.

Take B4: the “OD at 405 nm” value is 3.13 OD.

For B5, the “OD at 405 nm” value amounted to 2.48 OD.

A further experiment deals with T2, truncated recombinant form of HBeAg …. In words: EIA, support-bound peptide, HBeAg 10 ug/ml.
In the case of B1, the OD was determined as 0.06 OD.

B2: the OD was 0.222 OD.

For the molecule B3, the OD is 0.091 OD.

On to B4, for which the OD came out at 0.096 OD.

Take B5: the OD came to 0.246 OD.

The target in another experiment is T1, Full length recombinant HBcAg (rHBcAg) …. In words: competition EIA, HBcAg coated 5 ug/ml, peptide 50 ug/ml together with mAb 4-2 (competitor); OD of bound mAb.
For B1, the “OD at 490 nm” value is 0.998 OD.

Take B2: the “OD at 490 nm” value is 0.395 OD.

For the molecule B3, the “OD at 490 nm” value worked out at 1.25 OD.

For the molecule B4, the “OD at 490 nm” value turned out to be 1.22 OD.

Take B5: the “OD at 490 nm” value was found to be 1.56 OD.

For a further experiment the target is unchanged. In words: competition EIA, HBcAg coated 1 ug/ml, peptide 50 ug/ml before mAb 4-2 (competitor); OD of bound mAb.
With B1, the “OD at 490 nm” value was found to be 0.364 OD.

On to B2, for which the “OD at 490 nm” value came to 0.188 OD.

Regarding B3, the “OD at 490 nm” value is 0.337 OD.

With B4, the “OD at 490 nm” value was 0.312 OD.

As for B5, the “OD at 490 nm” value was 0.402 OD.

For another experiment, the target named is T2, truncated recombinant form of HBeAg …. In words: EIA, support-bound peptide, HBeAg 1.25 ug/ml.
As for B1, the OD stood at 0.023 OD.

For B2, the OD is 0.043 OD.

Regarding B3, the OD is 0.026 OD.

On to B4, for which the OD is 0.034 OD.

Take B5: the OD was determined as 0.056 OD.
